Series [1] is described as follows: Chemical stability testing: incubation in HCl, NaOH, H2O2 or NH4HCO3 at 40° C., remaining purity by RP-HPLC. It is filed as physicochemical. As to conditions: 40° C., 2 mg/ml, relative to the purity at T=0. The protocol:
The GLP-2 analogues were dissolved in purified water and subsequently diluted in solutions containing HCl, NaOH, H2O2 or NH4HCO3. The solutions were incubated at 40° C. to produce hydrolysis, deamidation and oxidation products. The samples were analyzed by RP-HPLC and the percentage of remaining intact compound was determined as a measure for the relative stability. The major degradation products were tentatively identified by LC-MS.
The GLP-2 analogues tested and the reference Gly^2-GLP-2, ZP1559 (SEQ ID NO:54), were dissolved in water and subsequently diluted into solutions containing HCl, NaOH, H2O2 or NH4HCO3. The samples were incubated at 40° C. to generate hydrolysis, deamidation and oxidation products, respectively. The compounds were analysed by RP-HPLC for purity of the original main peak and by LC-MS for confirmation of the identity by mass of the main peak and major degradation products.
The GLP-2 analogues were first dissolved in MQW to a concentration of 4 mg/ml and then further diluted in the stress solutions at a 1:1 ratio (e.g. 125 μl plus 125 μl). The final concentrations were 2 mg/ml of the GLP-2 analogues for stress conditions with 0.1 M HCl, 0.01M NaOH, 0.1 M NH4HCO3 and 0.5% H2O2, respectively.
The solutions were incubated at 40° C. in the dark and then diluted in Eluent A to a concentration of 0.5 mg/ml (addition of 750 μl) prior to analyses by RP-HPLC and by LC-MS.
The RP-HPLC analyses were performed on an Agilent Series 1100 HPLC system under control of the ChemStation (Revision A.08.03 [847]) software from Agilent Technologies, Inc. The raw data and the results of the peak integration were deposited on the ChemStore C/S server by the use of Agilent Technologies Revision B01.03 software.
The results are shown in Table 9 as the compound purity measured by RP-HPLC after incubation under stress conditions. This purity is a measure for the remaining intact compound after incubation in stress solutions, relative to the purity measured a T=0.

Series [2] is described as follows: Tentative identification of major degradation products in stress test samples by LC-MS. It is filed as physicochemical. As to conditions: 3 days at 40° C. in 0.5% H2O2. Here is the method:
Analytical LC-MS analyses were performed on an Agilent Technologies 1100 HPLC instrument consisting of an on-line degasser, quaternary gradient pump, an auto sampler, a column oven, an UV detector. The HPLC instrument was interfaced with a Micromass LCT (ESI-TOF) mass spectrometer under control of Masslynx 3.5 software, from MicroMass, UK.
Major degradation products in the stress test samples were tentatively identified by the LC-MS method. Any isomers to the parent compounds and minor degradation products were not observed by this analytical LC-MS method.

Series [3] has as its system male C57BL mice. In words: Screening for intestinal growth effects (small intestine and colon mass relative to body weight, small intestine-colon sensitivity index). It is filed as in vivo. The gist of the method:
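Groups of six mice were dosed s.c. at 30 nmol/kg twice daily for ten days, with vehicle (PBS, pH 7.4) or equimolar [Gly2]GLP-2 as comparators. The sensitivity index was (SI/Colon) of the compound over that of [Gly2]GLP-2, with ≥1.05 counted as small-intestine-selective and ≤0.95 as colon-selective.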

Series [4] deals with male C57BL mice. As to the kind of experiment: Dose-response effect on intestinal growth (SI mass, SI-Colon Sensitivity Index, colon and stomach mass). As to conditions: 5-405 nmol/kg s.c. b.i.d. for three days, vs vehicle. It is filed as in vivo. The protocol:
Values are means±SEM. *: P<0.05 relative to the equimolar dose of [Gly2]GLP-2 (SEQ ID NO:54).
FIG. 2 is a set of graphs showing full dose-response data of four small intestine selective compounds (compound nos. 1846 (SEQ ID NO:34), 1855 (SEQ ID NO:43), 1848 (SEQ ID NO:36), 1858 (SEQ ID NO:46)) on the Small Intestine (SI)-to-Colon Sensitivity Index mice relative to the non-selective reference compound [Gly2]GLP-2 (SEQ ID NO:54). Compounds were administered by subcutaneous injection b.i.d. for three days in C57BL mice at the following doses: 0 (vehicle), 5, 15, 45, 135, 405 nmol/kg (n=6/dose group). Responses at each dose level were compared with responses obtained at the same dose level in pair-treated mice treated with the non-selective reference compound [Gly2]GLP-2 (SEQ ID NO:54). The SI-Colon Sensitivity Index was calculated as SI-mass relative to colon mass and the Sensitivity Index at each dose level was normalized to the response observed with the non-selective reference compound [Gly2]GLP-2 (SEQ ID NO:54). […] Values are means±SEM. *: P<0.05 relative to the equimolar dose of [Gly2]GLP-2.
FIG. 4 is a set of graphs showing full dose-response data of three small intestine selective compounds (compound nos. 1857 (SEQ ID NO:45), 1820 (SEQ ID NO:10), and 1849 (SEQ ID NO:37)) on the Small Intestine (SI)-to-Colon Sensitivity Index mice relative to the non-selective reference compound [Gly2]GLP-2 (SEQ ID NO:54). Compounds were administered by subcutaneous injection b.i.d. for three days in C57BL mice at the following doses: 0 (vehicle), 5, 15, 45, 135, 405 nmol/kg (n=6/dose group). Responses at each dose level were compared with responses obtained at the same dose level in pair-treated mice treated with the non-selective reference compound [Gly2]GLP-2 (SEQ ID NO:54). The SI-Colon Sensitivity Index was calculated as SI-mass relative to colon mass and the Sensitivity Index at each dose level was normalized to the response observed with the non-selective reference compound [Gly2]GLP-2 (SEQ ID NO:54). […] Values are means±SEM. *: P<0.05 relative to the equimolar dose of [Gly2]GLP-2 (SEQ ID NO:54).
Compounds were administered by subcutaneous injection b.i.d. for three days in C57BL mice at the following doses: 0 (vehicle), 5, 15, 45, 135, 405 nmol/kg (n=6/dose group). […] Values are means±SEM. *: P<0.05 relative to the vehicle.
The dose-response effect of 1820 (SEQ ID NO:10), 1855 (SEQ ID NO:43), ZP1846 (SEQ ID NO:34), 1858 (SEQ ID NO:46), 1849 (SEQ ID NO:37), 1848 (SEQ ID NO:36), and 1857 (SEQ ID NO:45) on small intestinal mass was determined in male C57BL mice. Individual groups (n=6) of mice were given 5, 15, 45, 135 or 405 nmol/kg of each compound, s.c, twice daily for three consecutive days. For comparison purposes other groups of animals were given either equimolar doses of [Gly2]GLP-2 (SEQ ID NO:54) or vehicle (phosphate buffered saline, pH 7.4) in the same dosing regimen. Twenty-four hours after the last dose of compound had been given the mice were sacrificed and the small intestine (from the pylorus to the cecum emptied and weighed to determine the effect on small intestinal mass.

For series [5], the system named is colonic neoplasms in mice. As to conditions: cited from earlier work.

This is an account of results in patent US9580487B2, “Method of treating stomach or bowel-related disorders by administering glucagon-like-peptide-2 (GLP-2) analogues” (Zealand Pharma A/S, priority 2005, dated 2017).

“H-[Gly2]hGLP-2-OH [Compound 1559, reference compound]”: in series [1] (RP-HPLC), the “Purity H2O2 0.5% 3 days” value is recorded as less than 5% and the “Purity HCl 0.1M 12 days” value was 57%. In addition, the “Purity NH4HCO3 0.1M 6 days” value in series [1] (pH 8, RP-HPLC) is reported as 66%. For the same substance, the “Intact product found by LC-MS after H2O2 stress” value in series [2] is listed as “No product intact”. Besides, in series [3] (30 nmol/kg s.c. twice daily, ten days, relative to [Gly2]GLP-2), the “Preferential growth of small intestine versus colon (small intestine-colon sensitivity)” value was “without preferential growth in small intestine or colon”. The “colon mass relative to body weight, % [Gly2]GLP-2” value in series [3] (male C57BL mice, 30 nmol/kg s.c. twice daily for ten days) amounted to 100 % [Gly2]GLP-2. The “small intestine-colon sensitivity index, (SI/Colon)X/(SI/Colon)[Gly2]GLP-2 %” value in series [3] (male C57BL mice, 30 nmol/kg s.c. twice daily for ten days, third value column) was 100 % [Gly2]GLP-2. Moreover, in series [4], the “Growth stimulation of small intestine, colon and stomach mass” value is “produced dose-dependent growth stimulation in small intestine, colon and stomach”. Further, in series [5], the “Growth of colonic neoplasms” value is on record as “accelerate the growth of colonic neoplasms in mice”.
